Tests used:
[1] = target: GST-Ragulator pre-incubated with GFP-tagged active-loaded Rag heterodimers (UniProt Q6IAA8); test: single-molecule imaging on beads
[2] = target: stable Ragulator-VhH + GFP-Rag complexes (UniProt Q9Y2Q5); test: single-molecule imaging on beads
UniProt Q9Y2Q5, sequence (Q9Y2Q5 whole entry, looked up, one chain of several): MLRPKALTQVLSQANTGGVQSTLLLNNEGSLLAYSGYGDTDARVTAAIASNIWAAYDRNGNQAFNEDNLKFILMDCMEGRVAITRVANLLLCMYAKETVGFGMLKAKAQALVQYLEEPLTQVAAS

Q: What does the source list for “Raptor-Halo^TMR (co-purified with mTOR and mLST8) (from UniProt Q8N122;P42345;Q9BVC4) (complex)”?
A: residence time (photobleaching-corrected half-life, t1/2) [1]: 3.1 s; residence time (photobleaching-corrected half-life, t1/2) [2]: 13.2 s
